{"source": "patent US8859492", "key": {"[1]": {"biological_target": "Recombinant human somatic ACE (sACE-1: Leu30-Leu1261, with C-terminal His tag) (human) (UniProt P12821)", "sequence (P12821 30-1261 limits assumed)": "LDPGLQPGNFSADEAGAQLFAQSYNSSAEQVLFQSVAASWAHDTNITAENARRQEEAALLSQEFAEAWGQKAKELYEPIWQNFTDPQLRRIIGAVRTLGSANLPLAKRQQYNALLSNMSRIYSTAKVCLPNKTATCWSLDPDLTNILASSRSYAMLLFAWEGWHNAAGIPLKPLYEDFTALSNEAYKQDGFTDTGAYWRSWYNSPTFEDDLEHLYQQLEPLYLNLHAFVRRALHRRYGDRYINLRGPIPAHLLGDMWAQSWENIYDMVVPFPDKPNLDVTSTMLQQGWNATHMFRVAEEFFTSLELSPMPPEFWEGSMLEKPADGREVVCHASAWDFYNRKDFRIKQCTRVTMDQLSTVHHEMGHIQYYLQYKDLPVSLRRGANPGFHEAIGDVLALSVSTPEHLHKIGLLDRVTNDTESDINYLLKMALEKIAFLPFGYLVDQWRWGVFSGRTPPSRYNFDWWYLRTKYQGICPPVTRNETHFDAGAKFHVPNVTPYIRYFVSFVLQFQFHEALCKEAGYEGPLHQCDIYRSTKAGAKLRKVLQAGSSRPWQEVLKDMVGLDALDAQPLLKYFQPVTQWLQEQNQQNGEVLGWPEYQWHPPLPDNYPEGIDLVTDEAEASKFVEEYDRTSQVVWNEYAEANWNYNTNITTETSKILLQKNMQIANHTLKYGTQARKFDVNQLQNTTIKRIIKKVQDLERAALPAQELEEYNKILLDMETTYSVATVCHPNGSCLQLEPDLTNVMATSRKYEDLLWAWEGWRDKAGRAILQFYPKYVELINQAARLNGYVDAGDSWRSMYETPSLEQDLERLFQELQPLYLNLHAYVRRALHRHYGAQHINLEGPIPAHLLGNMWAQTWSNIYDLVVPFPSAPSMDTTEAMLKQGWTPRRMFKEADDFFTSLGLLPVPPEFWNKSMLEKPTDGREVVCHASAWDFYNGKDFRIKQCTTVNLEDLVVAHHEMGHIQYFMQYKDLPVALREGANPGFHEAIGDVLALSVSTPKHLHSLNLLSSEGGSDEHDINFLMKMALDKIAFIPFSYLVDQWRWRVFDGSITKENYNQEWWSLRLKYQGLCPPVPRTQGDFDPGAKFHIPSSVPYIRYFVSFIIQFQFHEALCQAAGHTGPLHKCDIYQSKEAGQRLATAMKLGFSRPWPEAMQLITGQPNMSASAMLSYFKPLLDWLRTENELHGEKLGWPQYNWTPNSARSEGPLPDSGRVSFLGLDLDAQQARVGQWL", "assay": "cell-based or functional assay"}, "[2]": {"biological_target": "Recombinant human somatic ACE (sACE-1: Leu30-Leu1261, with C-terminal His tag) (human) (UniProt P12821)", "assay": "affinity based on the IC50 of sACE-1 inhibition (fluorogenic substrate cleavage)"}, "[3]": {"biological_target": "HCV protease (hepatitis C virus)", "assay": "affinity of metallopeptide for HCV protease; method not described"}}, "note": "Where no end group is shown, it is not given here. [ ]: non-standard residue; d: D form. Cha = N[C@@H](CC1CCCCC1)C(=O)O"}
{"substance": "Ni-GGH-lisinopril (peptide)", "values": [{"measurement": "IC50 of sACE-1 inhibition (cleavage of fluorogenic substrate)", "setting": "[1]", "result": 150, "unit": "nM"}, {"measurement": "second order rate constant for inactivation of sACE-1, ascorbate", "setting": "[1]", "result": 500, "unit": "M⁻¹ s⁻¹"}, {"measurement": "Ka", "setting": "[2]", "result": "6.67e+06", "unit": "M⁻¹"}]}
{"substance": "Ni-GGH (M-chelate without lisinopril) (peptide)", "values": [{"measurement": "second order rate constant for inactivation of sACE-1, ascorbate", "setting": "[1]", "result": "< 83.3", "unit": "M⁻¹ s⁻¹"}]}
{"substance": "Co-GGH (M-chelate without lisinopril) (peptide)", "values": [{"measurement": "second order rate constant for inactivation of sACE-1, ascorbate + H2O2", "setting": "[1]", "result": "< 333", "unit": "M⁻¹ s⁻¹"}]}
{"substance": "GGHDEMEEC (SEQ ID NO: 71)", "values": [{"measurement": "affinity", "setting": "[3]", "result": 48, "unit": "µM"}]}
{"substance": "Co-GGH-lisinopril (peptide)", "values": [{"measurement": "IC50 of sACE-1 inhibition (cleavage of fluorogenic substrate)", "setting": "[1]", "result": 90, "unit": "nM"}, {"measurement": "second order rate constant for inactivation of sACE-1, ascorbate + H2O2", "setting": "[1]", "result": 1170, "unit": "M⁻¹ s⁻¹"}, {"measurement": "Ka", "setting": "[2]", "result": "1.11e+07", "unit": "M⁻¹"}]}
{"substance": "Cu-GGH-lisinopril (peptide)", "values": [{"measurement": "IC50 of sACE-1 inhibition (cleavage of fluorogenic substrate)", "setting": "[1]", "result": 1470, "unit": "nM"}, {"measurement": "second order rate constant for inactivation of sACE-1, H2O2", "setting": "[1]", "result": 467, "unit": "M⁻¹ s⁻¹"}, {"measurement": "second order rate constant for inactivation of sACE-1, ascorbate", "setting": "[1]", "result": 1700, "unit": "M⁻¹ s⁻¹"}, {"measurement": "second order rate constant for inactivation of sACE-1, ascorbate + H2O2", "setting": "[1]", "result": 2530, "unit": "M⁻¹ s⁻¹"}, {"measurement": "Ka", "setting": "[2]", "result": 680000, "unit": "M⁻¹"}]}
{"substance": "[Cu-GGH]^1- (peptide)", "values": [{"measurement": "IC50 of sACE-1 inhibition (cleavage of fluorogenic substrate)", "setting": "[1]", "result": 17000, "unit": "nM"}, {"measurement": "second order rate constant for inactivation of sACE-1, H2O2", "setting": "[1]", "result": "< 33.3", "unit": "M⁻¹ s⁻¹"}, {"measurement": "second order rate constant for inactivation of sACE-1, ascorbate", "setting": "[1]", "result": "< 16.7", "unit": "M⁻¹ s⁻¹"}, {"measurement": "second order rate constant for inactivation of sACE-1, ascorbate + H2O2", "setting": "[1]", "result": 167, "unit": "M⁻¹ s⁻¹"}]}
{"substance": "GGHD[dE]LI[Cha]CP[Cha]DL", "values": [{"measurement": "affinity", "setting": "[3]", "result": 0.01, "unit": "µM"}]}
